Like-named read-outs stand apart in the source and are kept apart here.
Assays:
[1] = target: T1, hEndoU WT (Homo sapiens, UniProt P21128 135-410); test: NMR
T1 sequence: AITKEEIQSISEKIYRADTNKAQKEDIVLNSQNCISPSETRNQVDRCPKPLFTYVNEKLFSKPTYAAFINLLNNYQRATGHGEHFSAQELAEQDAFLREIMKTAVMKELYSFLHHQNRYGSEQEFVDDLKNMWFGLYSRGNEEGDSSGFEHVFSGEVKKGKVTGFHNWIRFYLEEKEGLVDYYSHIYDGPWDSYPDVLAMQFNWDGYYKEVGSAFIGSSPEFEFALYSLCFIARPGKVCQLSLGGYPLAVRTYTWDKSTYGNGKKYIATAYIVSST

[2] = target: T2, hEndoU E284A (Homo sapiens, UniProt P21128 135-410, E284A); test: EMSA
T2 sequence: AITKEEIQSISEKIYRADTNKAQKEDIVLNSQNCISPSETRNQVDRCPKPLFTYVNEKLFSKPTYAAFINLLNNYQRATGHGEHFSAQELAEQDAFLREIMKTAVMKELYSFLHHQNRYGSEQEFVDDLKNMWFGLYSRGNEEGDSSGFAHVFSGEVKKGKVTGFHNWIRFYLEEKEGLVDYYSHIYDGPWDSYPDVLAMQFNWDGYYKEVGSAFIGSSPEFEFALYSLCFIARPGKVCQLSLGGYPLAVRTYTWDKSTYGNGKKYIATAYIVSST

[3] = target: T3, hEndoU H285A (Homo sapiens, UniProt P21128 135-410, H285A); test: EMSA
T3 sequence: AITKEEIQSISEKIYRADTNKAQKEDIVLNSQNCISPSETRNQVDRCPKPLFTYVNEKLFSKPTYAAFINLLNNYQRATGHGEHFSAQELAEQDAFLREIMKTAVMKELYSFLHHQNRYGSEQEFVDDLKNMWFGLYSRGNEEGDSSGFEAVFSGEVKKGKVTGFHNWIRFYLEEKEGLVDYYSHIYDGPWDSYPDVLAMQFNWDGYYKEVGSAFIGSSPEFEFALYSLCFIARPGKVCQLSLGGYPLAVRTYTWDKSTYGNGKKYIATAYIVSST

[4] = target: T4, hEndoU H285A/R385A (Homo sapiens, UniProt P21128 135-410, H285A;R385A); test: EMSA
T4 sequence: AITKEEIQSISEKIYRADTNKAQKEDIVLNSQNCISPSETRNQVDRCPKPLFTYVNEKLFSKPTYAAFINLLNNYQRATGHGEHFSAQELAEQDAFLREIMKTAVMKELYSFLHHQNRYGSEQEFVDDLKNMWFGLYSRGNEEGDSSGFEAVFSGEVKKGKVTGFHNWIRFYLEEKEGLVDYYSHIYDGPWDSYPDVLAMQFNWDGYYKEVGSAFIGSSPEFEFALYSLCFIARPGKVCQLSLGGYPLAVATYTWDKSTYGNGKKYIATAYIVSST

[5] = target: T5, hEndoU H285A/R385K (Homo sapiens, UniProt P21128 135-410, H285A;R385K); test: EMSA
T5 sequence: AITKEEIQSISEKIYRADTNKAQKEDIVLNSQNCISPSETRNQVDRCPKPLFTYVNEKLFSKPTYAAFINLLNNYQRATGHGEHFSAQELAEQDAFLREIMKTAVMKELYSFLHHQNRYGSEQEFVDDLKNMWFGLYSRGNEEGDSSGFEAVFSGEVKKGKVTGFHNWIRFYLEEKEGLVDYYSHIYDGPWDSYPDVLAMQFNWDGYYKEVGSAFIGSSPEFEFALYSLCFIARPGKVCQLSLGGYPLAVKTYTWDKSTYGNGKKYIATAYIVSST

[6] = target: T1, hEndoU WT; test: NMR; remark: listed apart in the source

B1: 2'-F (U)6 (XNA)
RNA: UUUUUU
modifications: 2'-F at all nucleotides
binding result [1]: binds

B2: single-uridylate RNA (ssRNA)
RNA: CACGAGUACCAGAAAACCAAAA
binding result [2]: binds
binding result [3]: binds
binding result [4]: binds
binding result [5]: binds

B3: 2'-F RNA AAGUCC (XNA)
RNA: AAGUCC
modifications: 2'-F at all nucleotides
binding result [6]: binds

From PMC11961692
